{
  "source": "patent US11103562B2",
  "about": "“Composition comprising alkaline phosphatase for use in the treatment of arthritides” (AMRIF BV, priority 2017, dated 2021)",
  "molecules": {"B1": {"name": "AP: human recombinant placenta alkaline phosphatase (hRESCAP; TNO, Zeist), an ectophosphatase (protein, UniProt P05187 23-506, looked up)", "Alkaline phosphatase, …": "IIPVEEENPDFWNREAAEALGAAKKLQPAQTAAKNLIIFLGDGMGVSTVTAARILKGQKKDKLGPEIPLAMDRFPYVALSKTYNVDKHVPDSGATATAYLCGVKGNFQTIGLSAAARFNQCNTTRGNEVISVMNRAKKAGKSVGVVTTTRVQHASPAGTYAHTVNRNWYSDADVPASARQEGCQDIATQLISNMDIDVILGGGRKYMFRMGTPDPEYPDDYSQGGTRLDGKNLVQEWLAKRQGARYVWNRTELMQASLDPSVTHLMGLFEPGDMKYEIHRDSTLDPSLMEMTEAALRLLSRNPRGFFLFVEGGRIDHGHHESRAYRALTETIMFDDAIERAGQLTSEEDTLSLVTADHSHVFSFGGYPLRGSSIFGLAPGKARDRKAYTVLLYGNGPGYVLKDGARPDVTESESGSPEYRQQSAVPLDEETHAGEDVAVFARGPQAHLVHGVQEQTFIAHVMAFAACLEPYTACDLAPPAGTTD"}},
  "key": {"[1]": {"assay": "Tolerability of therapeutic interventions in arthritic rats", "format": "in vivo", "experimental": "(§1) All rats (except healthy) were immunized and arthritis was induced via 1× or 4× intra-articular (i.a) mBSA injections, 4 or 5 days apart in the arthritic (right) knee, the contralateral (left, non-arthritic) knee serving as control knee. For therapeutic interventions, AP (human recombinant placenta AP, TNO, Zeist, The Netherlands) was administered subcutaneously (s.c.) at a dose of 700 U/kg (≈200 μg), MTX (VU University Medical Centers' Pharmacy) was administered intra-peritoneal (i.p.) at two dosages: 0.3 mg/kg (low dose) and 1.0 mg/kg (high dose). The rats were divided in 8 groups, based on different treatments and treatment schedules. In a prophylactic setting, two rats received AP twice prior to intra-articular (i.a.) arthritis induction and four rats received AP twice prior to intra-articular and 4× PBS in between i.a. injections. In the treatment groups, arthritic rats were administered AP twice or 4× after arthritis induction, either as standalone therapy or in combination with low or high dose MTX. Control rats received 500 μL of PBS (i.p.). […] At the end of study, all rats were sacrificed and tissues were excised for further processing and various analyses."}, "[2]": {"assay": "AP plasma pharmacokinetics (enzymatic PNP assay) in healthy and arthritic rats", "format": "in vivo, rat", "settings": "for persistence of increased plasma AP levels: 4 hour sampling", "experimental": "An enzymatic assay was used to determine plasma concentrations of alkaline phosphatase prior to and 0-4 hours after administration a dose of 700 U/kg AP to healthy rats and arthritic rats, FIG. 7. At time points 0, 15, 60, 120 and 240 min after AP administration, a blood sample was drawn from the tail vain of the rats and transferred to a lml Eppendorf microtube containing heparin (454081, Greiner bio-one, Charlotte, USA) as anti-coagulant. As a control, blood was drawn at the same time points from arthritic rats that were injected a t=0 with 500 μl PBS. Eppendorf tubes were centrifuged at 3,000×g for 5 min at 4° C., after which the plasma was collected and stored at −80° C. until use.\nThe enzymatic assay for AP is based on the conversion of the substrate paranitrophenol-phosphate (PNP; 104105, Sigma-Aldrich, Zwijdrecht, the Netherlands) to paranitrophenol which is measured spectrophotometrically at 405 nm at 25° C. To a 3 ml reaction cuvette was added 2.9 ml substrate solution (containing final concentrations of 25 mM glycine, 10 mM MgCl2, 3 mM PNP, adjusted to pH 9.6 with NaOH). The reaction was started by adding 30 μl of plasma sample, 1:1 diluted in enzyme diluent buffer (25 mM glycine, 1 mM MgCl2, 0.1 mM ZnCl2, 10% (v/v) glycerol, adjusted to pH 9.6 with NaOH). In parallel a reference cuvette was assayed without substrate. The reaction was followed on line for 5 min at 25° C. with continuous monitoring increase of absorbance at 405 nm using a (10037-434, VWR, Radnor, Pa.<USA) spectrophotometer. From the linear phase of A405 increments, AP activity in plasma samples (in U/L) was calculated from a standard curve with serial dilutions of a human recombinant placenta AP stock solution. One Unit of activity is defined as the amount of enzyme decomposing 1 μmol of PNP/min at 25° C."}, "[3]": {"system": "ED1+ and ED2+ synovial macrophages", "assay": "Synovial macrophage infiltration (ED1/ED2 immunohistochemistry) in knees of rats with mBSA antigen-induced arthritis", "format": "in vivo, rat", "experimental": "(§2) Experiments were performed using a rat model for RA as published by Chandruputla et al. (BioMed Int, 2015) to show the effects of recombinant human alkaline phosphatase (hRESCAP) on RA. hRESCAP was compared with MTX used as a positive control. The antigen-induced rat model uses two subcutaneous immunizations with a mixture of methylated bovine serum albumin (mBSA), CFA (complete Freund's adjuvant antigen) and CBP (custom Bordetella pertussis antigen) and intra-articular injections of mBSA on one side knee and saline (negative control) on the counter knee. Immunohistochemical (IHC) analysis specifically focussed on infiltration with macrophages and knee swelling is followed over time after therapeutic treatment with MTX, or hRESCAP.\n(§3) In the rat model, RA is induced in the right knee (RA knee), the contralateral left knee serves as a internal control (control knee). The model allows various options for therapeutic interventions, either before intra-articular injections or during boosts injections with mBSA. Two hours prior to AP administration, rats received a dose of levamisole (50 mg/kg, s.c.). For comparison, arthritic rats received treatment with methotrexate (1 mg/kg, i.p.).\nAt the end of the experiment, rats were sacrificed and knees were decalcified and processed for IHC analysis of synovial macrophage infiltration, including 2 rat macrophage antibodies; ED1 (homolog of human CD68) and ED2 (homolog of human CD163, a proposed marker for human M2 anti-inflammatory macrophages). IHC analysis of ED1 and ED2 macrophages was performed in multiple quadrants of synovial tissue, as described by Chandruputla et al (BioMed Int, 2015). Macrophage counting included synovial lining layer (SL 1-10) and synovial sublining layers (SL 1-20).\nas §1\nThe arthritic and contralateral knees from all rats were dissected in toto and fixed for 7 days at 4° C. in 10% freshly made paraformaldehyde in PBS with 2% sucrose (pH=7.3) prior to decalcification in osteosoft (101728, Merck, Germany) for ˜2.5 weeks at room temperature. Thereafter, knees were embedded in paraffin. Sections of 5 μm were cut through the centre of the joint in longitudinal direction and stained with haematoxylin and eosin (HE) to assess the degree of inflammation in synovial tissue. Liver and spleen sections from all rats were dissected and fixed in 4% paraformaldehyde for 24 h before embedding in paraffin. Sections of 5 μm were cut and stained initially with HE and then for macrophages Staining for macrophages with ED1 (homologous to human CD68), and ED2 (homologous to human CD163, a marker for M2 anti-inflammatory macrophages), or isotype control antibody was performed. Images were captured using a Leica 4000B microscope and Leica digital camera DC500 (Microsystems B. V. Rijswijk, The Netherlands). […]"}, "[4]": {"system": "arthritic rats", "assay": "Knee swelling in rats with mBSA antigen-induced arthritis", "format": "in vivo, rat", "experimental": "as §2, §3, §1"}, "[5]": {"settings": "rats; cited from earlier work"}, "[6]": {"settings": "2× AP administration followed by 4× PBS, p<0.01"}, "[7]": {"settings": "prophylactic AP treatment, 2× AP before intra-articular antigen injection"}, "[8]": {"settings": "prophylactic: 2× AP (700 U/kg) prior to intra-articular mBSA injection, p<0.01"}},
  "note": "Entries after “also recorded” stand apart in the source; their conditions may differ.",
  "data": [
    {"molecule": "B1", "values": [
      {"measurement": "changes in body weight", "setting": "[1]", "result": "nor were significant changes in the body weight observed"},
      {"measurement": "tolerability / adverse effects", "setting": "[1]; AP 700 U/kg, MTX 0.3 or 1.0 mg/kg", "result": "well tolerated"},
      {"measurement": "maximum increase of plasma AP levels over baseline", "setting": "[2]; arthritic rats, 700 U/kg i.p.", "result": 1.7, "unit": "fold"},
      {"measurement": "time for plasma AP levels to drop to basal levels", "setting": "[2]; arthritic rats, 700 U/kg i.p.", "result": "steadily returned to baseline levels"},
      {"measurement": "time for plasma AP levels to drop to basal levels", "setting": "[2]; arthritic rats, 700 U/kg i.p., listed as hRESCAP", "result": "≤ 4", "unit": "h"},
      {"measurement": "time to maximum (peak) plasma AP level", "setting": "[2]; healthy and arthritic rats, 700 U/kg i.p.", "result": 1, "unit": "h"},
      {"measurement": "peak plasma levels above baseline", "setting": "[2]; healthy and arthritic rats, single i.p. dose of 700 U/kg", "result": "50-70%"},
      {"measurement": "maximum increase of plasma AP levels over baseline", "setting": "[2]; healthy rats, 700 U/kg i.p.", "result": 1.5, "unit": "fold"},
      {"measurement": "persistence of increased plasma AP levels", "setting": "[2]; healthy rats, 700 U/kg i.p.", "result": "retained for up to 4 hours"},
      {"measurement": "persistence of increased plasma AP levels", "setting": "[2]; healthy rats, 700 U/kg i.p., listed as hRESCAP", "result": "remained stably higher above control level in plasma over 4 hours"},
      {"measurement": "reduction of synovial ED1+ macrophage infiltration in arthritic knees", "setting": "[3]; [6]", "result": 2, "unit": "fold"},
      {"measurement": "reduction of synovial ED2+ macrophage infiltration in arthritic knees", "setting": "[3]; [6]", "result": 3, "unit": "fold"},
      {"measurement": "ED1+ synovial macrophage infiltration in arthritic knee (in words)", "setting": "[3]; [7]", "result": "mild infiltration; also recorded: very much reduced; also recorded: markedly reduced infiltration"},
      {"measurement": "ED2+ synovial macrophages in arthritic knee (in words)", "setting": "[3]; [7]", "result": "do not show this activity; also recorded: markedly reduced infiltration"},
      {"measurement": "lower quantification of ED1+ macrophages in arthritic knees compared to untreated rats (1× i.a.)", "setting": "[3]; [8]", "result": 4, "unit": "fold"},
      {"measurement": "lower quantification of ED2+ macrophages in arthritic knees compared to untreated rats (1× i.a.)", "setting": "[3]; [8]", "result": 8, "unit": "fold"},
      {"measurement": "further reduction of ED1+ and ED2+ macrophage counts in arthritic knees", "setting": "[3]; therapeutic setting, 4× AP administration", "result": "~8", "unit": "fold"},
      {"measurement": "ED2+ synovial macrophages in arthritic knee (in words)", "setting": "[3]; therapeutic treatment, 4× AP after first i.a. and in between boosts", "result": "much reduced"},
      {"measurement": "ED1+ synovial macrophage infiltration in arthritic knee (in words)", "setting": "[3]; therapeutic treatment, 4× after first i.a. and in between boosts, AP 700 U/kg, MTX 1 mg/kg", "result": "reduces ED1+ infiltration; also recorded: very much reduced"},
      {"measurement": "swelling of the mBSA-injected right knee", "setting": "[4]; prophylactic and therapeutic AP treatment or MTX treatment, versus positive control", "result": "Reduced swelling"},
      {"measurement": "swelling of the non-treated left knee", "setting": "[4]; versus positive control treatment", "result": "swelling is reduced"},
      {"measurement": "half life time", "setting": "[5]", "result": "≈ 3 days"}
    ]}
  ]
}
